Reference: CN114409766A (AGRICULTURAL UNIV IN CHINA, dated 2022)

T1: EBV病毒颗粒 (gp350 on EB virus particles) (Epstein-Barr virus, UniProt P03200 1-907)
T1 construct: also called EBV颗粒; UV-EBV病毒颗粒
T1 sequence (looked up): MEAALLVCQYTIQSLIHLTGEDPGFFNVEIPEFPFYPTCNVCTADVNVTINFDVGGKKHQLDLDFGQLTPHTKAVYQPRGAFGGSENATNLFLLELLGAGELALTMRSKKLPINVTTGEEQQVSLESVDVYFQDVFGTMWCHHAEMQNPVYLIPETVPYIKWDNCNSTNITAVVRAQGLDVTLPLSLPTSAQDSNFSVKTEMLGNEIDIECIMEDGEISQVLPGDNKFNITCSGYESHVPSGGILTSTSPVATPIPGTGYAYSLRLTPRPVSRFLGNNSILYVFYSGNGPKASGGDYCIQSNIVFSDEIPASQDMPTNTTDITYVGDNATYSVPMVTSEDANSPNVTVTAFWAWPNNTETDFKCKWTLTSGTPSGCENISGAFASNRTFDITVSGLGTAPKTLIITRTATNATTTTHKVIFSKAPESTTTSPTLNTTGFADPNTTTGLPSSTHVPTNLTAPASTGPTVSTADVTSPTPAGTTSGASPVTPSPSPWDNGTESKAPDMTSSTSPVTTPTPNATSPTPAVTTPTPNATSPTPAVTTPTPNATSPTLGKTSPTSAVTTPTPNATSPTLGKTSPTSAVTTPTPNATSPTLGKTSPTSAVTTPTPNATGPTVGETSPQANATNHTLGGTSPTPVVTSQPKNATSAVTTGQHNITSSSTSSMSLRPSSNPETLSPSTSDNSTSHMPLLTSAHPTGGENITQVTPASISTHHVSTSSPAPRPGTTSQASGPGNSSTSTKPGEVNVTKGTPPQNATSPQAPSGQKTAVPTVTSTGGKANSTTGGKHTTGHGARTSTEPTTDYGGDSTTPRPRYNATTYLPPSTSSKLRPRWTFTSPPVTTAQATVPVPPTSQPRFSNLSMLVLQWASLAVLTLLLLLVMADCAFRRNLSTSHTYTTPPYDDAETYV

B1: 单克隆抗体R9 (scFv fused to FLAG tag or hFc) (scFv)
scFv: QSVKESEGGLFKPTDTLTLTCTVSGSSLRSYGVSWVRQAPGTGLEWIGAIGRSGSAYYASWAKSRSTITRNTNDNTVTLKMTSLTAADTATYFCARAYFGNSIGPFNIWGPGTLVTVSSGGGGSGGGGSGGGGSAIVLTQTPSSVSAPVGGTVTINCQASQSVSNLLAWYQQKPGQPPKLLIYGASNLESGVPSRFRGSGSGTQFTLTISGVKAEDVAAYYCHQHSSFPLTFGAGTKVEIK
B2: 单克隆抗体R1 (scFv fused to FLAG tag or hFc) (scFv)
scFv: QSVKESEGGLFKPTDTLTLTCTVSGFSLSSNAISWVRQAPGNGLEYIGYISYRGNTYYASWARSRSTITRNTNENTVTLKMTRLTAADTATYFCARIRSYSRANGHADGFDPWGPGTLVTVSSGGGGSGGGGSGGGGSDVVMTQTPSSVSAAVGGTVTINCQASESISNLLAWYQQKPGQPPKLLIYGASNLESGVPSRFRGSGSGTQFTLTISGVKDEDVATYYCQSGRYAAGATFGAGTNVEIK
notes: also called R1抗体; 单抗R1

Biological target: T1, EBV病毒颗粒 (gp350 on EB virus particles)
Assay: ELISA, EBV particles coated, titrated binder

Binder | binding result
B1 | binds
B2 | binds
